How the values were obtained:
[1] = tested on: HeLa Kyoto; assay: solubility change mitosis vs G1/S (difference of NP-40 vs SDS log2 ratios) (log2 ratio difference); higher = more soluble in mitosis
[2] = tested on: HeLa Kyoto; assay: solubility in G1/S (NP-40 vs SDS abundance) (log2 ratio); higher = more soluble; details: cell cycle stage: G1/S
[3] = tested on: HeLa Kyoto; assay: thermal stability score vs G1/S (z-score of summed log2 fold changes over temperatures); higher = more thermally stable than in G1/S
[4] = tested on: HeLa Kyoto; assay: melting temperature (median over replicates), in situ; higher = more thermally stable
[5] = cell cycle stage: early G1 (4.5 h after nocodazole release)
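Throughout, for melting temperature (median over replicates), in situ: HeLa Kyoto cells synchronized by double thymidine or nocodazole block, proteins quantified by TMT10plex mass spectrometry, three independent biological replicates.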
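Throughout, for solubility change mitosis vs G1/S (difference of NP-40 vs SDS log2 ratios): synchronized HeLa Kyoto cells (double thymidine block for G1/S, nocodazole release for mitosis), protein amounts in NP-40 versus SDS lysates quantified by mass spectrometry, three biological replicates.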
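Throughout, for solubility in G1/S (NP-40 vs SDS abundance): HeLa Kyoto cells arrested at G1/S by double thymidine block, proteins quantified by TMT10plex mass spectrometry in mild NP-40 versus SDS extracts, three biological replicates.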
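Throughout, for thermal stability score vs G1/S (z-score of summed log2 fold changes over temperatures): synchronized HeLa Kyoto cells, proteins quantified by TMT10plex mass spectrometry, three biological replicates, mitosis taken 0.5 h after nocodazole release, G1/S directly after double thymidine block.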

In the case of “MSDTAVADTRRLNSKPQDLTDAYGPPSNFLEIDIFNPQTVGVGRARFTTYEVRMRTNLPIFKLKESCVRRRYSDFEWLKNELERDSKIVVPPLPGKALKRQLPFRGDEGIFEESFIEERRQGLEQFINKIAGHPLAQNERCLHMFLQEEAIDRNYVPGKVRQ [SNX12]”, the “solubility change mitosis (log2)” value [1] is reported as 0.12, the “solubility in G1/S (log2)” value [2] is reported as 0.348 and the thermal stability score [3, 5] is reported as -0.501. It also gave a thermal stability score ([3]; cell cycle stage: mitosis) of -1.12, a melting temperature ([4]; cell cycle stage: G1/S) of 49.2 °C and a melting temperature ([4]; cell cycle stage: mitosis) of 50.7 °C.

With CHD4 the “solubility change mitosis (log2)” value [1] was 0.0937, the “solubility in G1/S (log2)” value [2] was -0.471 and the thermal stability score [3, 5] was 3.38. For the same substance, the thermal stability score ([3]; cell cycle stage: mitosis) was 8.56, the melting temperature ([4]; cell cycle stage: G1/S) was 46.9 °C and the melting temperature ([4]; cell cycle stage: mitosis) was 49.1 °C.

“MASVWQRLGFYASLLKRQLNGGPDVIKWERRVIPGCTRSIYSATGKWTKEYTLQTRKDVEKWWHQRIKEQASKISEADKSKPKFYVLSMFPYPSGKLHMGHVRVYTISDTIARFQKMRGMQVINPMGWDAFGLPAENAAVERNLHPQSWTQSNIKHMRKQLDRLGLCFSWDREITTCLPDYYKWTQYLFIKLYEAGLAYQKEALVNWDPVDQTVLANEQVDEHGCSWRSGAKVEQKYLRQWFIKTTAYAKAMQDALADLPEWYGIKGMQAHWIGDCVGCHLDFTLKVHGQATGEKLTAYTATPEAIYGTSHVAISPSHRLLHGHSSLKEALRMALVPGKDCLTPVMAVNMLTQQEVPVVILAKADLEGSLDSKIGIPSTSSEDTILAQTLGLAYSEVIETLPDGTERLSSSAEFTGMTRQDAFLALTQKARGKRVGGDVTSDKLKDWLISRQRYWGTPIPIVHCPVCGPTPVPLEDLPVTLPNIASFTGKGGPPLAMASEWVNCSCPRCKGAAKRETDTMDTFVDSAWYYFRYTDPHNPHSPFNTAVADYWMPVDLYIGGKEHAVMHLFYARFFSHFCHDQKMVKHREPFHKLLAQGLIKGQTFRLPSGQYLQREEVDLTGSVPVHAKTKEKLEVTWEKMSKSKHNGVDPEEVVEQYGIDTIRLYILFAAPPEKDILWDVKTDALPGVLRWQQRLWTLTTRFIEARASGKSPQPQLLSNKEKAEARKLWEYKNSVISQVTTHFTEDFSLNSAISQLMGLSNALSQASQSVILHSPEFEDALCALMVMAAPLAPHVTSEIWAGLALVPRKLCAHYTWDASVLLQAWPAVDPEFLQQPEVVQMAVLINNKACGKIPVPQQVARDQDKVHEFVLQSELGVRLLQGRSIKKSFLSPRTALINFLVQD [LARS2]” was tested, and the “solubility change mitosis (log2)” value [1] was -0.0972, the “solubility in G1/S (log2)” value [2] was -0.045 and the thermal stability score [3, 5] was 0.0823. The thermal stability score ([3]; cell cycle stage: mitosis) was 0.851, the melting temperature ([4]; cell cycle stage: G1/S) was 49.7 °C and the melting temperature ([4]; cell cycle stage: mitosis) was 49.9 °C.

With “MAASGAVEPGPPGAAVAPSPAPAPPPAPDHLFRPISAEDEEQQPTEIESLCMNCYCNGMTRLLLTKIPFFREIIVSSFSCEHCGWNNTEIQSAGRIQDQGVRYTLSVRALEDMNREVVKTDSAATRIPELDFEIPAFSQKGALTTVEGLITRAISGLEQDQPARRANKDATAERIDEFIVKLKELKQVASPFTLIIDDPSGNSFVENPHAPQKDDALVITHYNRTRQQEEMLGLQEEAPAEKPEEEDLRNEVLQFSTNCPECNAPAQTNMKLVQIPHFKEVIIMATNCENCGHRTNEVKSGGAVEPLGTRITLHITDASDMTRDLLKSETCSVEIPELEFELGMAVLGGKFTTLEGLLKDIRELVTKNPFTLGDSSNPGQTERLQEFSQKMDQIIEGNMKAHFIMDDPAGNSYLQNVYAPEDDPEMKVERYKRTFDQNEELGLNDMKTEGYEAGLAPQR [ZPR1]” the “solubility change mitosis (log2)” value [1] was -0.0376, the “solubility in G1/S (log2)” value [2] was 0.433 and the thermal stability score [3, 5] was -0.562. The thermal stability score ([3]; cell cycle stage: mitosis) was -0.171, the melting temperature ([4]; cell cycle stage: G1/S) was 52.6 °C and the melting temperature ([4]; cell cycle stage: mitosis) was 52.5 °C.

In the case of “MAASASAAAGEEDWVLPSEVEVLESIYLDELQVIKGNGRTSPWEIYITLHPATAEDQDSQYVCFTLVLQVPAEYPHEVPQISIRNPRGLSDEQIHTILQVLGHVAKAGLGTAMLYELIEKGKEILTDNNIPHGQCVICLYGFQEKEAFTKTPCYHYFHCHCLARYIQHMEQELKAQGQEQEQERQHATTKQKAVGVQCPVCREPLVYDLASLKAAPEPQQPMELYQPSAESLRQQEERKRLYQRQQERGGIIDLEAERNRYFISLQQPPAPAEPESAVDVSKGSQPPSTLAAELSTSPAVQSTLPPPLPVATQHICEKIPGTRSNQQRLGETQKAMLDPPKPSRGPWRQPERRHPKGGECHAPKGTRDTQELPPPEGPLKEPMDLKPEPHSQGVEGPPQEKGPGSWQGPPPRRTRDCVRWERSKGRTPGSSYPRLPRGQGAYRPGTRRESLGLESKDGS [RNF25]”, the “solubility change mitosis (log2)” value [1] is reported as 0.00785, the “solubility in G1/S (log2)” value [2] is reported as 0.537 and the thermal stability score [3, 5] is reported as -0.22. For the same substance, the thermal stability score ([3]; cell cycle stage: mitosis) was -0.474, the melting temperature ([4]; cell cycle stage: G1/S) was 52.7 °C and the melting temperature ([4]; cell cycle stage: mitosis) was 52.7 °C.

With “MDPARKAGAQAMIWTAGWLLLLLLRGGAQALECYSCVQKADDGCSPNKMKTVKCAPGVDVCTEAVGAVETIHGQFSLAVRGCGSGLPGKNDRGLDLHGLLAFIQLQQCAQDRCNAKLNLTSRALDPAGNESAYPPNGVECYSCVGLSREACQGTSPPVVSCYNASDHVYKGCFDGNVTLTAANVTVSLPVRGCVQDEFCTRDGVTGPGFTLSGSCCQGSRCNSDLRNKTYFSPRIPPLVRLPPPEPTTVASTTSVTTSTSAPVRPTSTTKPMPAPTSQTPRQGVEHEASRDEEPRLTGGAAGHQDRSNSGQYPAKGGPQQPHNKGCVAPTAGLAALLLAVAAGVLL [LYPD3]” the “solubility change mitosis (log2)” value [1] was -0.185, the “solubility in G1/S (log2)” value [2] was -0.405 and the thermal stability score [3, 5] was -2.56. It also gave a thermal stability score ([3]; cell cycle stage: mitosis) of 3.5 and a melting temperature ([4]; cell cycle stage: G1/S) of 56.9 °C.

With “MSFFNFRKIFKLGSEKKKKQYEHVKRDLNPEDFWEIIGELGDGAFGKVYKAQNKETSVLAAAKVIDTKSEEELEDYMVEIDILASCDHPNIVKLLDAFYYENNLWILIEFCAGGAVDAVMLELERPLTESQIQVVCKQTLDALNYLHDNKIIHRDLKAGNILFTLDGDIKLADFGVSAKNTRTIQRRDSFIGTPYWMAPEVVMCETSKDRPYDYKADVWSLGITLIEMAEIEPPHHELNPMRVLLKIAKSEPPTLAQPSRWSSNFKDFLKKCLEKNVDARWTTSQLLQHPFVTVDSNKPIRELIAEAKAEVTEEVEDGKEEDEEEETENSLPIPASKRASSDLSIASSEEDKLSQNACILESVSEKTERSNSEDKLNSKILNEKPTTDEPEKAVEDINEHITDAQLEAMTELHDRTAVIKENEREKRPKLENLPDTEDQETVDINSVSEGKENNIMITLETNIEHNLKSEEEKDQEKQQMFENKLIKSEEIKDTILQTVDLVSQETGEKEANIQAVDSEVGLTKEDTQEKLGEDDKTQKDVISNTSDVIGTCEAADVAQKVDEDSAEDTQSNDGKEVVEVGQKLINKPMVGPEAGGTKEVPIKEIVEMNEIEEGKNKEQAINSSENIMDINEEPGTTEGEEITESSSTEEMEVRSVVADTDQKALGSEVQDASKVTTQIDKEKKEIPVSIKKEPEVTVVSQPTEPQPVLIPSININSDSGENKEEIGSLSKTETILPPESENPKENDNDSGTGSTADTSSIDLNLSISSFLSKTKDSGSISLQETRRQKKTLKKTRKFIVDGVEVSVTTSKIVTDSDSKTEELRFLRRQELRELRFLQKEEQRAQQQLNSKLQQQREQIFRRFEQEMMSKKRQYDQEIENLEKQQKQTIERLEQEHTNRLRDEAKRIKGEQEKELSKFQNMLKNRKKEVINEVEKAPKELRKELMKRRKEELAQSQHAQEQEFVQKQQQELDGSLKKIIQQQKAELANIERECLNNKQQLMRAREAAIWELEERHLQEKHQLLKQQLKDQYFMQRHQLLKRHEKETEQMQRYNQRLIEELKNRQTQERARLPKIQRSEAKTRMAMFKKSLRINSTATPDQDRDKIKQFAAQEEKRQKNERMAQHQKHENQMRDLQLQCEANVRELHQLQNEKCHLLVEHETQKLKELDEEHSQELKEWREKLRPRKKTLEEEFARKLQEQEVFFKMTGESECLNPSTQSRISKFYPIPSLHSTGS” the “solubility change mitosis (log2)” value [1] was -0.139, the “solubility in G1/S (log2)” value [2] was 0.0156 and the thermal stability score [3, 5] was -0.208. For the same substance, the thermal stability score ([3]; cell cycle stage: mitosis) was 0.991, the melting temperature ([4]; cell cycle stage: G1/S) was 50.2 °C and the melting temperature ([4]; cell cycle stage: mitosis) was 49.9 °C.

For “MADDDVLFEDVYELCEVIGKGPFSVVRRCINRETGQQFAVKIVDVAKFTSSPGLSTEDLKREASICHMLKHPHIVELLETYSSDGMLYMVFEFMDGADLCFEIVKRADAGFVYSEAVASHYMRQILEALRYCHDNNIIHRDVKPHCVLLASKENSAPVKLGGFGVAIQLGESGLVAGGRVGTPHFMAPEVVKREPYGKPVDVWGCGVILFILLSGCLPFYGTKERLFEGIIKGKYKMNPRQWSHISESAKDLVRRMLMLDPAERITVYEALNHPWLKERDRYAYKIHLPETVEQLRKFNARRKLKGAVLAAVSSHKFNSFYGDPPEELPDFSEDPTSSGLLAAERAVSQVLDSLEEIHALTDCSEKDLDFLHSVFQDQHLHTLLDLYDKINTKSSPQIRNPPSDAVQRAKEVLEEISCYPENNDAKELKRILTQPHFMALLQTHDVVAHEVYSDEALRVTPPPTSPYLNGDSPESANGDMDMENVTRVRLVQFQKNTDEPMGITLKMNELNHCIVARIMHGGMIHRQGTLHVGDEIREINGISVANQTVEQLQKMLREMRGSITFKIVPSYRTQSSSCERDSPSTSRQSPANGHSSTNNSVSDLPSTTQPKGRQIYVRAQFEYDPAKDDLIPCKEAGIRFRVGDIIQIISKDDHNWWQGKLENSKNGTAGLIPSPELQEWRVACIAMEKTKQEQQASCTWFGKKKKQYKDKYLAKHNAVFDQLDLVTYEEVVKLPAFKRKTLVLLGAHGVGRRHIKNTLITKHPDRFAYPIPHTTRPPKKDEENGKNYYFVSHDQMMQDISNNEYLEYGSHEDAMYGTKLETIRKIHEQGLIAILDVEPQALKVLRTAEFAPFVVFIAAPTITPGLNEDESLQRLQKESDILQRTYAHYFDLTIINNEIDETIRHLEEAVELVCTAPQWVPVSWVY [CASK]”, the “solubility change mitosis (log2)” value [1] was -0.0742, the “solubility in G1/S (log2)” value [2] was -0.129 and the thermal stability score [3, 5] was -0.366. It also gave a thermal stability score ([3]; cell cycle stage: mitosis) of -0.0785, a melting temperature ([4]; cell cycle stage: G1/S) of 52.1 °C and a melting temperature ([4]; cell cycle stage: mitosis) of 51.9 °C.

For “MATANFGKIQIGIYVEIKRSDGRIHQAMVTSLNEDNESVTVEWIENGDTKGKEIDLESIFSLNPDLVPDEEIEPSPETPPPPASSAKVNKIVKNRRTVASIKNDPPSRDNRVVGSARARPSQFPEQSSSAQQNGSVSDISPVQAAKKEFGPPSRRKSNCVKEVEKLQEKREKRRLQQQELREKRAQDVDATNPNYEIMCMIRDFRGSLDYRPLTTADPIDEHRICVCVRKRPLNKKETQMKDLDVITIPSKDVVMVHEPKQKVDLTRYLENQTFRFDYAFDDSAPNEMVYRFTARPLVETIFERGMATCFAYGQTGSGKTHTMGGDFSGKNQDCSKGIYALAARDVFLMLKKPNYKKLELQVYATFFEIYSGKVFDLLNRKTKLRVLEDGKQQVQVVGLQEREVKCVEDVLKLIDIGNSCRTSGQTSANAHSSRSHAVFQIILRRKGKLHGKFSLIDLAGNERGADTSSADRQTRLEGAEINKSLLALKECIRALGRNKPHTPFRASKLTQVLRDSFIGENSRTCMIATISPGMASCENTLNTLRYANRVKELTVDPTAAGDVRPIMHHPPNQIDDLETQWGVGSSPQRDDLKLLCEQNEEEVSPQLFTFHEAVSQMVEMEEQVVEDHRAVFQESIRWLEDEKALLEMTEEVDYDVDSYATQLEAILEQKIDILTELRDKVKSFRAALQEEEQASKQINPKRPRAL [KIF2A]”, the “solubility change mitosis (log2)” value [1] was -0.0102, the “solubility in G1/S (log2)” value [2] was -0.149 and the thermal stability score [3, 5] was 1.7. For the same substance, the thermal stability score ([3]; cell cycle stage: mitosis) was 1.64, the melting temperature ([4]; cell cycle stage: G1/S) was 50 °C and the melting temperature ([4]; cell cycle stage: mitosis) was 50.1 °C.
